This note sets out measurements from the supplement of paper PMC12338614.

± gives the uncertainty stated by the source.

B1: library; numbered along this chain (parent)
chain: MEVVDPQQLGMFTEGELMSVGMDTFIHRIDSTEVIYQPRRKRAKLIGKYLMGDLLGEGSYGKVKEVLDSETLCRRAVKILKKKKLRRIPNGEANVKKEIQLLRRLRHKNVIQLVDVLYNEEKQKMYMVMEYCVCGMQEMLDSVPEKRFPVCQAHGYFCQLIDGLEYLHSQGIVHKDIKPGNLLLTTGGTLKISDLGVAEALHPFAADDTCRTSQGSPAFQPPEIANGLDTFSGFKVDIWSAGVTLYNITTGLYPFEGDNIYKLFENIGKGSYAIPGDCGPPLSDLLKGMLEYEPAKRFSIRQIRQHSWFRKKHPPAEAPVPIPPSPDTKDRWRSMTVVPYLEDLHGADEDEDLFDIEDDIIYTQDFTVPGQVPEEEASHNGQRRGLPKAVCMNGTEAAQLSTKSRAEGRAPNPARKACSASSKIRRLSACKQQ

Variants of B1 are the subject of the series. Put plainly: STK11 functional score (HeLa growth suppression), rescaled enrichment; synonymous median = 1, nonsense median = 0 (normalised score). The settings on record: with HeLa; variant type: missense. In short, it runs like this:
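The functional score takes the post/pre-selection log ratio, corrects it to wild type, rescales it to synonymous and nonsense medians, and merges it over codons and replicate transfections, with error from bootstrapping. Counts came from tiled gDNA amplicons sequenced on NextSeq (~2 million reads per tile). The libraries were POPCode codon-randomised, codon-optimised STK11 integrated by Bxb1 at an AAVS1 landing pad in HeLa, three regions with three transfections each.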
Turning to MEVVDPQQLGMFTEGELMSVGMDTFIHRIDSTEVIYQPRRKRAKLIGKYLMGDLLGEGSYGKVKEVLDSETLCRRAVKILKKKKLRRIPNGEANVKKEIQLLRRLRHKNVIQLVDVLYNEEKQKMYMVMEYCVCGMQEMLDSVPEKRFPVCQAHGYFCQLIDGLEYLHSQGIVHKDIKPGNLLLTTGGTLKISDLGVAEALHPFAADDTCRTSQGSPAFQPPEIANGLDTFSGFKVDIWSAGVTLYNITTGLYPFEGDNIYKLFENIGKGSYAIPGDCGPPLSDLLKGMLEYEPAKRFSIRQIRQHSWFRKKHPPAEAPVPIPPSPDTKDRWRSMTVVPYLEDLHGADEDEDLFDIEDDIIYTQDFTVPGQVPEEEASHNGQRRGLPKAVCMNGTEAAQLSTTSRAEGRAPNPARKACSASSKIRRLSACKQQ [K403T], the STK11 functional score is 1.19 ± 0.42.
For MEVVDPQQLGMFTEGELMSVGMDTFIHRIDSTEVIYQPRRKRAKLIGKYLMGDLLGEGSYGKVKEVLDSETLCRRAVKILKKKKLRRIPNGEANVKKEIQLLRRLRHKNVIQLVDVLYNEEKQKMYMVMEYCVCGMQEMLDSVPEKRFPVCQAHGYFCQLIDGLEYLHSQGIVHKDIKPGNLLLTTGGTLKISDLGVAEALHPFAADDTCRTSQGSPAFQPPEIANGLDTFSGFKVDIWSAGVTLYNITTGLYPFEGDNIYKLFENIGKGSYAIPGDCGPPLSDLLKGMLEYEPAKRFSIRQIRQHSWFRKKHPPAEAPVPIPPSPDTKDRWRSMTVVPYLEDLHGADEDEDLFDIEDDIIYTQDFTVPGQVPEEEASHNGQRRGLPKAVCMNGTEAAQLSTMSRAEGRAPNPARKACSASSKIRRLSACKQQ [K403M], the STK11 functional score stood at 0.00927 ± 0.14.
Turning to MEVVDPQQLGMFTEGELMSVGMDTFIHRIDSTEVIYQPRRKRAKLIGKYLMGDLLGEGSYGKVKEVLDSETLCRRAVKILKKKKLRRIPNGEANVKKEIQLLRRLRHKNVIQLVDVLYNEEKQKMYMVMEYCVCGMQEMLDSVPEKRFPVCQAHGYFCQLIDGLEYLHSQGIVHKDIKPGNLLLTTGGTLKISDLGVAEALHPFAADDTCRTSQGSPAFQPPEIANGLDTFSGFKVDIWSAGVTLYNITTGLYPFEGDNIYKLFENIGKGSYAIPGDCGPPLSDLLKGMLEYEPAKRFSIRQIRQHSWFRKKHPPAEAPVPIPPSPDTKDRWRSMTVVPYLEDLHGADEDEDLFDIEDDIIYTQDFTVPGQVPEEEASHNGQRRGLPKAVCMNGTEAAQLSTWSRAEGRAPNPARKACSASSKIRRLSACKQQ [K403W], the STK11 functional score is 1.54 ± 0.27.
Consider MEVVDPQQLGMFTEGELMSVGMDTFIHRIDSTEVIYQPRRKRAKLIGKYLMGDLLGEGSYGKVKEVLDSETLCRRAVKILKKKKLRRIPNGEANVKKEIQLLRRLRHKNVIQLVDVLYNEEKQKMYMVMEYCVCGMQEMLDSVPEKRFPVCQAHGYFCQLIDGLEYLHSQGIVHKDIKPGNLLLTTGGTLKISDLGVAEALHPFAADDTCRTSQGSPAFQPPEIANGLDTFSGFKVDIWSAGVTLYNITTGLYPFEGDNIYKLFENIGKGSYAIPGDCGPPLSDLLKGMLEYEPAKRFSIRQIRQHSWFRKKHPPAEAPVPIPPSPDTKDRWRSMTVVPYLEDLHGADEDEDLFDIEDDIIYTQDFTVPGQVPEEEASHNGQRRGLPKAVCMNGTEAAQLSTSSRAEGRAPNPARKACSASSKIRRLSACKQQ [K403S], for which the STK11 functional score amounted to 0.892 ± 0.59.
On to MEVVDPQQLGMFTEGELMSVGMDTFIHRIDSTEVIYQPRRKRAKLIGKYLMGDLLGEGSYGKVKEVLDSETLCRRAVKILKKKKLRRIPNGEANVKKEIQLLRRLRHKNVIQLVDVLYNEEKQKMYMVMEYCVCGMQEMLDSVPEKRFPVCQAHGYFCQLIDGLEYLHSQGIVHKDIKPGNLLLTTGGTLKISDLGVAEALHPFAADDTCRTSQGSPAFQPPEIANGLDTFSGFKVDIWSAGVTLYNITTGLYPFEGDNIYKLFENIGKGSYAIPGDCGPPLSDLLKGMLEYEPAKRFSIRQIRQHSWFRKKHPPAEAPVPIPPSPDTKDRWRSMTVVPYLEDLHGADEDEDLFDIEDDIIYTQDFTVPGQVPEEEASHNGQRRGLPKAVCMNGTEAAQLSTVSRAEGRAPNPARKACSASSKIRRLSACKQQ [K403V], for which the STK11 functional score amounted to 0.598 ± 0.14.
Turning to MEVVDPQQLGMFTEGELMSVGMDTFIHRIDSTEVIYQPRRKRAKLIGKYLMGDLLGEGSYGKVKEVLDSETLCRRAVKILKKKKLRRIPNGEANVKKEIQLLRRLRHKNVIQLVDVLYNEEKQKMYMVMEYCVCGMQEMLDSVPEKRFPVCQAHGYFCQLIDGLEYLHSQGIVHKDIKPGNLLLTTGGTLKISDLGVAEALHPFAADDTCRTSQGSPAFQPPEIANGLDTFSGFKVDIWSAGVTLYNITTGLYPFEGDNIYKLFENIGKGSYAIPGDCGPPLSDLLKGMLEYEPAKRFSIRQIRQHSWFRKKHPPAEAPVPIPPSPDTKDRWRSMTVVPYLEDLHGADEDEDLFDIEDDIIYTQDFTVPGQVPEEEASHNGQRRGLPKAVCMNGTEAAQLSTRSRAEGRAPNPARKACSASSKIRRLSACKQQ [K403R], the STK11 functional score was determined as 1.03 ± 0.69.
In the case of MEVVDPQQLGMFTEGELMSVGMDTFIHRIDSTEVIYQPRRKRAKLIGKYLMGDLLGEGSYGKVKEVLDSETLCRRAVKILKKKKLRRIPNGEANVKKEIQLLRRLRHKNVIQLVDVLYNEEKQKMYMVMEYCVCGMQEMLDSVPEKRFPVCQAHGYFCQLIDGLEYLHSQGIVHKDIKPGNLLLTTGGTLKISDLGVAEALHPFAADDTCRTSQGSPAFQPPEIANGLDTFSGFKVDIWSAGVTLYNITTGLYPFEGDNIYKLFENIGKGSYAIPGDCGPPLSDLLKGMLEYEPAKRFSIRQIRQHSWFRKKHPPAEAPVPIPPSPDTKDRWRSMTVVPYLEDLHGADEDEDLFDIEDDIIYTQDFTVPGQVPEEEASHNGQRRGLPKAVCMNGTEAAQLSTQSRAEGRAPNPARKACSASSKIRRLSACKQQ [K403Q], the STK11 functional score was determined as 1.61 ± 0.37.
Turning to MEVVDPQQLGMFTEGELMSVGMDTFIHRIDSTEVIYQPRRKRAKLIGKYLMGDLLGEGSYGKVKEVLDSETLCRRAVKILKKKKLRRIPNGEANVKKEIQLLRRLRHKNVIQLVDVLYNEEKQKMYMVMEYCVCGMQEMLDSVPEKRFPVCQAHGYFCQLIDGLEYLHSQGIVHKDIKPGNLLLTTGGTLKISDLGVAEALHPFAADDTCRTSQGSPAFQPPEIANGLDTFSGFKVDIWSAGVTLYNITTGLYPFEGDNIYKLFENIGKGSYAIPGDCGPPLSDLLKGMLEYEPAKRFSIRQIRQHSWFRKKHPPAEAPVPIPPSPDTKDRWRSMTVVPYLEDLHGADEDEDLFDIEDDIIYTQDFTVPGQVPEEEASHNGQRRGLPKAVCMNGTEAAQLSTLSRAEGRAPNPARKACSASSKIRRLSACKQQ [K403L], the STK11 functional score worked out at 1.25 ± 0.46.
As for MEVVDPQQLGMFTEGELMSVGMDTFIHRIDSTEVIYQPRRKRAKLIGKYLMGDLLGEGSYGKVKEVLDSETLCRRAVKILKKKKLRRIPNGEANVKKEIQLLRRLRHKNVIQLVDVLYNEEKQKMYMVMEYCVCGMQEMLDSVPEKRFPVCQAHGYFCQLIDGLEYLHSQGIVHKDIKPGNLLLTTGGTLKISDLGVAEALHPFAADDTCRTSQGSPAFQPPEIANGLDTFSGFKVDIWSAGVTLYNITTGLYPFEGDNIYKLFENIGKGSYAIPGDCGPPLSDLLKGMLEYEPAKRFSIRQIRQHSWFRKKHPPAEAPVPIPPSPDTKDRWRSMTVVPYLEDLHGADEDEDLFDIEDDIIYTQDFTVPGQVPEEEASHNGQRRGLPKAVCMNGTEAAQLSTISRAEGRAPNPARKACSASSKIRRLSACKQQ [K403I], the STK11 functional score is 1.04 ± 0.46.
For MEVVDPQQLGMFTEGELMSVGMDTFIHRIDSTEVIYQPRRKRAKLIGKYLMGDLLGEGSYGKVKEVLDSETLCRRAVKILKKKKLRRIPNGEANVKKEIQLLRRLRHKNVIQLVDVLYNEEKQKMYMVMEYCVCGMQEMLDSVPEKRFPVCQAHGYFCQLIDGLEYLHSQGIVHKDIKPGNLLLTTGGTLKISDLGVAEALHPFAADDTCRTSQGSPAFQPPEIANGLDTFSGFKVDIWSAGVTLYNITTGLYPFEGDNIYKLFENIGKGSYAIPGDCGPPLSDLLKGMLEYEPAKRFSIRQIRQHSWFRKKHPPAEAPVPIPPSPDTKDRWRSMTVVPYLEDLHGADEDEDLFDIEDDIIYTQDFTVPGQVPEEEASHNGQRRGLPKAVCMNGTEAAQLSTHSRAEGRAPNPARKACSASSKIRRLSACKQQ [K403H], the STK11 functional score amounted to 1.53 ± 0.17.
Regarding MEVVDPQQLGMFTEGELMSVGMDTFIHRIDSTEVIYQPRRKRAKLIGKYLMGDLLGEGSYGKVKEVLDSETLCRRAVKILKKKKLRRIPNGEANVKKEIQLLRRLRHKNVIQLVDVLYNEEKQKMYMVMEYCVCGMQEMLDSVPEKRFPVCQAHGYFCQLIDGLEYLHSQGIVHKDIKPGNLLLTTGGTLKISDLGVAEALHPFAADDTCRTSQGSPAFQPPEIANGLDTFSGFKVDIWSAGVTLYNITTGLYPFEGDNIYKLFENIGKGSYAIPGDCGPPLSDLLKGMLEYEPAKRFSIRQIRQHSWFRKKHPPAEAPVPIPPSPDTKDRWRSMTVVPYLEDLHGADEDEDLFDIEDDIIYTQDFTVPGQVPEEEASHNGQRRGLPKAVCMNGTEAAQLSTYSRAEGRAPNPARKACSASSKIRRLSACKQQ [K403Y], the STK11 functional score stood at 1.59 ± 0.21.
For MEVVDPQQLGMFTEGELMSVGMDTFIHRIDSTEVIYQPRRKRAKLIGKYLMGDLLGEGSYGKVKEVLDSETLCRRAVKILKKKKLRRIPNGEANVKKEIQLLRRLRHKNVIQLVDVLYNEEKQKMYMVMEYCVCGMQEMLDSVPEKRFPVCQAHGYFCQLIDGLEYLHSQGIVHKDIKPGNLLLTTGGTLKISDLGVAEALHPFAADDTCRTSQGSPAFQPPEIANGLDTFSGFKVDIWSAGVTLYNITTGLYPFEGDNIYKLFENIGKGSYAIPGDCGPPLSDLLKGMLEYEPAKRFSIRQIRQHSWFRKKHPPAEAPVPIPPSPDTKDRWRSMTVVPYLEDLHGADEDEDLFDIEDDIIYTQDFTVPGQVPEEEASHNGQRRGLPKAVCMNGTEAAQLSTNSRAEGRAPNPARKACSASSKIRRLSACKQQ [K403N], the STK11 functional score was found to be 1.42 ± 0.6.
Turning to MEVVDPQQLGMFTEGELMSVGMDTFIHRIDSTEVIYQPRRKRAKLIGKYLMGDLLGEGSYGKVKEVLDSETLCRRAVKILKKKKLRRIPNGEANVKKEIQLLRRLRHKNVIQLVDVLYNEEKQKMYMVMEYCVCGMQEMLDSVPEKRFPVCQAHGYFCQLIDGLEYLHSQGIVHKDIKPGNLLLTTGGTLKISDLGVAEALHPFAADDTCRTSQGSPAFQPPEIANGLDTFSGFKVDIWSAGVTLYNITTGLYPFEGDNIYKLFENIGKGSYAIPGDCGPPLSDLLKGMLEYEPAKRFSIRQIRQHSWFRKKHPPAEAPVPIPPSPDTKDRWRSMTVVPYLEDLHGADEDEDLFDIEDDIIYTQDFTVPGQVPEEEASHNGQRRGLPKAVCMNGTEAAQLSTKCRAEGRAPNPARKACSASSKIRRLSACKQQ [S404C], the STK11 functional score was 1.14 ± 0.56.
Turning to MEVVDPQQLGMFTEGELMSVGMDTFIHRIDSTEVIYQPRRKRAKLIGKYLMGDLLGEGSYGKVKEVLDSETLCRRAVKILKKKKLRRIPNGEANVKKEIQLLRRLRHKNVIQLVDVLYNEEKQKMYMVMEYCVCGMQEMLDSVPEKRFPVCQAHGYFCQLIDGLEYLHSQGIVHKDIKPGNLLLTTGGTLKISDLGVAEALHPFAADDTCRTSQGSPAFQPPEIANGLDTFSGFKVDIWSAGVTLYNITTGLYPFEGDNIYKLFENIGKGSYAIPGDCGPPLSDLLKGMLEYEPAKRFSIRQIRQHSWFRKKHPPAEAPVPIPPSPDTKDRWRSMTVVPYLEDLHGADEDEDLFDIEDDIIYTQDFTVPGQVPEEEASHNGQRRGLPKAVCMNGTEAAQLSTKARAEGRAPNPARKACSASSKIRRLSACKQQ [S404A], the STK11 functional score amounted to 1.31 ± 0.34.
